Measured values reported in patent US9365836B2, “Glycosyltransferase gene and use thereof” (SUNTORY HOLDINGS LIMITED, priority 2011, dated 2016).

B1: NmGT3: Nemophila glycosyltransferase (SEQ ID NO: 2, cDNA SEQ ID NO: 1) expressed in Escherichia coli, His-Tag purified (protein, listed as Nemophila menziesii)
chain: MPSILSNSAHILLFPFPTSGHIIPILDLANQLLARGLTITILITPANLTLLSTQLIELDRLGSLHTLVLPFPNPPNPSETSLAARVHASSQLSNTIIQWFQSHTSPPVAIVSDFFLGWTNSLASQLGIPRLVFWPSGVQRSSLVDYIWQNDQLSDSDHQIQDNSVISFPDVPNSPAYPKWQACGLSTQYKKGDPSWEFFKNGVLANTQSWGAIYNSFRDLEGVYIDYIKKKMGHGRVWAVGPLLPANDASKRGGSCVMPIDDVMTWLDTKTNSDNSVVYVCFGSRVELTTEQLDSLAAALEISGVHFILCVKLHQEISKEYEDRVAGRGLIIRGWAPQVAILRHRAVGAFLTHCGWNSILEGIAAGVVMLTWPMGADQFTNANLLVDELKVAMKACEGGDSNVPNPAMLANVLAESINGGRAERERVTELCDAALKAVQSGNGSSAKDLDSLTNQLNGLKVKIN
modifications: His-tag
B2: NmGT4: Nemophila glycosyltransferase (SEQ ID NO: 4, cDNA SEQ ID NO: 3) expressed in Escherichia coli, His-Tag purified (protein, listed as Nemophila menziesii)
chain: MAAQLHVVFFPFMAQGHLIPTLEMVKLFSSRGLKTTIVTTKFYAPAVTKSIEKTKHTGNQINIIIIKFPSAEVGLPEGSESLDKLKSPDMFMKFFKALSLLQEPFEQILQELSPDCIVSDMFFPWTTASAAKFDIPRFVFHGLSLFALCVSENMRFYKPFKNLGSESLDSEPVMLPDFPNQIEFSKVQVPEFEVGESKNEIMELLNQVKESEVKSYGIIINSFNELEKDYVDYYRNVWGRRAWLLGPLSLSNRDDEVKDQTDEHGSLKWLDSKKPDSVIYVCFGSVAPLSSSQLHEIALGLESSGQQFIWVVKEREDGEKWLPEGFEERIKDKGLIIRGWAPQVSILEHESTGGFVTHCGWNSVLEAVSAGVVMATLPTFAEQPFNEKLLTKVLKIGIPIGSPLSNRGKSGVKKEEIAEAMKGIMEGEEALEMRIRAKSLKEMAWKAVEEGGSSYNDLTSLIDGVKAYRSQSNKI
modifications: His-tag
B3: SuGT5: Salvia uliginosa glycosyltransferase (SEQ ID NO: 13, cDNA SEQ ID NO: 12) expressed in Escherichia coli, His-Tag purified (protein, listed as Salvia uliginousa)
chain: MKQLHIALFPSMAHGHMIPMFELAKLFTSRGLKATIIATPAFAAPITKAQQSGLDVGLAITPFPPKGSSLPQNIIAFDQMTNPDLTTSFLRAMELLQEPVEAILQELHPDCLVSDMFLPWTADSAAKFQIPRLAFYGTSYFSRCVSEQVGDKPFNNVTSDSEPVLVPGLPQQIKFVRSQFSPVLLEETQNDFAKLFKQMTEAWKKTYGEVVNSFNELESDYANHYKNVIGRKAWEIGPLLLCSSSKGGEKNQQRGKESAIDEHECLAWLDSKNPNSVVYVCAGSVASFSQAQLRETAMGLEASGQNFVWVVRKNKEDDDDWLPVGFEERVGNRGLIIRGWAPQVMILNHAAVGAFVTHCGWNSTLEGVCAGLPMVTWPVFAEQFFNEKLVTEVLGTGVSVGNKRWMLRESEGVERDAVARAVEEIMVGGGAEEMRSRAENYKEMAKKAVEEGGSSYNNLNALIEELSNYVAPTIQDKN
modifications: His-tag

What was measured:
Format in all cases: biochemical
[1] = Determination of enzyme activity of candidate glycosyltransferases, crude enzyme from Escherichia coli (HPLC); conditions: crude enzyme solution, substrate apigenin, UDP-glucose, 30° C., 1 hour
Description: pET-NmGT0 through pET-NmGT9 were introduced into Escherichia coli strain BL2 using the One Shot BL21 (DE3) (Invitrogen) according to a protocol recommended by the manufacturer to obtain transformed Escherichia coli. The Escherichia coli was cultured, using the Overnight Express Autoinduction System 1 (Novagen) according to a protocol recommended by the manufacturer. With 2 ml of the culture liquid prepared, the transformed Escherichia coli was cultured at 37° C. (about 4 hours) until the OD600 value reached 0.5. To this Escherichia coli solution as the preculture, 50 ml of the culture liquid was added and then subjected to the main culture overnight at 27° C. […]
80 μl of the crude enzyme solution, 20 μl of 5 mM UDP-glucose, 20 μl of 1M Tris HCl (pH 7.5), and 1 μl of 500 ng/μl apigenin were prepared on ice to 200 μl in water, and the reaction mixture obtained was maintained at 30° C. for 1 hour. Subsequently, 200 μl of the stopping buffer (a 90% acetonitrile aqueous solution containing 0.1% TFA) was added to stop the reaction, and analyzed with a high performance liquid chromatography (Prominence (Shimadzu)). The detector used is Shimadzu PDA SPD-M10AVP, and the flavone was detected at 330 nm. […]

[2] = Determination of enzyme activity of His-Tag-purified NmGT3 and NmGT4 protein solutions (HPLC); conditions: for product biosynthesized from apigenin 7-glucoside: substrate 50 ng/μl apigenin 7-glucoside, same condition; for product biosynthesized from apigenin: substrate 500 ng/μl apigenin, UDP-glucose, 30° C., 20 minutes; for product biosynthesized from apigenin 4′-glucoside: substrate apigenin 4′-glucoside, same condition (not shown)
Description: The Escherichia coli strain BL2 in which pET-NmGT3 or pET-NmGT4 described in Example 5 was introduced was cultured, using the Overnight Express Autoinduction System 1 (Novagen) according to a protocol recommended by the manufacturer. With 8 ml of the culture liquid prepared, the transformed Escherichia coli was cultured at 37° C. (about 4 hours) until the OD600 value reached 0.5. To this Escherichia coli solution as the preculture, 200 ml of the culture liquid was added and then subjected to the main culture overnight at 25° C.
The overnight-cultured Escherichia coli solution was centrifuged (1000×g, 4° C., 10 minutes), and the cells collected were suspended in 20 ml of a buffer (composition: NaCl: 0.5 M, Tris HCl (pH 7.9): 20 mM, imidazole: 5 mM, amidinophenyl methanesulfonyl fluoride hydrochloride (APMSF): 10 μM), and Escherichia coli was disrupted by sonication. The cells were then centrifuged (1400×g, 4° C., 20 minutes), and the supernatant was collected. The supernatant was passed through a 0.45 μm filter to His-Tag-purify using the Profinia (Bio-Rad) according to a protocol recommended by the manufacturer. The purified protein solution thus obtained was centrifuged (7500×g, 4° C., 15 minutes) using the Centrifugal filters (Ultracel-10K) (Amicon Ultra), and the concentrated protein solution was termed as “NmGT3 protein solution” and “NmGT4 protein solution”. For centrifugation, the Avanti HP-26 XP (rotor: JA-2) was used (BECKMAN COULTER).
(§1) 20 μl of the protein solution, 20 μl of 5 mM UDP-glucose, 20 μl of 1M Tris HCl (pH 7.5), and 1 μl of 500 ng/μl apigenin were mixed and prepared on ice to 200 μl in water, and the reaction mixture obtained was maintained at 30° C. for 20 minutes. Subsequently, 200 μl of the stopping buffer (a 90% acetonitrile aqueous solution containing 0.1% TFA) was added to stop the reaction, and analyzed with a high performance liquid chromatography (Prominence (Shimadzu)). The detector used is Shimadzu PDA SPD-M10AVP, and the flavone was detected at 330 nm. The column used is Shim-Pack ODS 150 mm×4.6 mm (Shimadzu). In elution, solution A (a 0.1% TFA aqueous solution) and solution B (a 90% methanol aqueous solution containing 0.1% TFA) were used. A linear gradient from a 8:2 mixture of the two solutions to a 3:7 mixture over 10 minutes and then a 3:7 mixture over 6 minutes were used in elution. The flow rate was set at 0.6 ml/minute.

[3] = Reactivity to various flavonoid compounds and betanidine (FIG. 13)
[4] = Determination of enzyme activity of His-Tag-purified SuGT protein solutions from Salvia uliginosa (HPLC)
Description: Escherichia coli expression constructs (pET-SuGT2, 5, 10) were created in a manner similar to that described in Example 5.
In a manner similar to that described in Example 5, “SuGT2 protein solution”, “SuGT5 protein solution” and “SuGT10 protein solution” were prepared.
as §1, with “20 μl of the protein solution, 20 μl of 5 mM UDP-glucose, 20 μl of 1M Tris HCl (pH 7.5), and 1 μl of 500 ng/μl apigenin were mixed and prepared on ice to 200 μl in water, and the reaction mixture obtained was maintained at 30° C. for 20 minutes.” left out

| Molecule | HPLC peaks after reaction of crude enzyme with apigenin [1] | product biosynthesized from apigenin 7-glucoside [2] | product biosynthesized from apigenin [2] | product biosynthesized from apigenin 4′-glucoside [2] | reactivity to various flavonoid compounds and betanidine [3] | product biosynthesized from apigenin 7-glucoside ([4]; substrate 500 ng/μg apigenin 7-glucoside, same condition) | product biosynthesized from apigenin ([4]; substrate 500 ng/μg apigenin, UDP-glucose, 30° C., 90 minutes) |
| --- | --- | --- | --- | --- | --- | --- | --- |
| B1 | peaks other than that of the substrate were observed | a flavone exhibiting the same retention time and the same absorption maximum as the purified apigenin 4′,7-diglucoside product was biosynthesized | a flavone exhibiting the same retention time and the same absorption maximum as the purified apigenin 4′,7-diglucoside product had been biosynthesized | a flavone exhibiting the same retention time and the same absorption maximum as the apigenin 4′,7-diglucoside purified product was biosynthesized | found to have an activity for not only apigenin and its glycosides but for luteolin and its glycosides and flavonol and its glycosides |  |  |
| B2 | peaks other than that of the substrate were observed | a flavone exhibiting the same retention time and the same absorption maximum as the purified apigenin 4′,7-diglucoside product was biosynthesized | a flavone exhibiting the same retention time and the same absorption maximum as the purified apigenin 4′,7-diglucoside product had been biosynthesized | a flavone exhibiting the same retention time and the same absorption maximum as the apigenin 4′,7-diglucoside purified product was biosynthesized | found to have an activity for not only apigenin and its glycosides but for luteolin and its glycosides and flavonol and its glycosides |  |  |
| B3 |  |  |  |  | found to have an activity for not only apigenin and its glycosides but for luteolin and its glycosides and flavonol and its glycosides | a flavone exhibiting the same retention time and the same absorption maximum as the purified apigenin 4′,7-diglucoside product was biosynthesized | a flavone exhibiting the same retention time and the same absorption maximum as the purified apigenin 4′,7-diglucoside product had been biosynthesized |
